# Laboratory results reported in article PMC13381803, “Phage-encoded factor stimulates DNA degradation by the Hna anti-phage defense system” (Nature Communications, 2026).
# How the values were obtained:
# [1] = target: 5 A SSB escape mutant E38K (phage 5 A (T7-like podovirus)); experiment: native gel or EMSA; native stoichiometry of wild-type 5 A SSB and escape mutants in the absence of DNA; each protein allowed to oligomerize for 1 hour; non-denaturing 4-20% Tris-glycine gel, 4 °C; part of the wild-type sample melted at 95 °C for the monomeric state
# [2] = target: 5 A SSB escape mutant E49A (phage 5 A (T7-like podovirus)); experiment: as above
# [3] = target: 5 A SSB escape mutant E201K (phage 5 A (T7-like podovirus)); experiment: as above
# [4] = target: Hna (helicase-nuclease abortive infection), wild type, Sinorhizobium meliloti (Sinorhizobium meliloti)
# [5] = target: Hna with a C-terminal GFP tag; experiment: fluorescence anisotropy; conditions: read off a plot
# [6] = target: phage-encoded single-stranded DNA-binding protein of phage 5 A (5 A SSB), wild type (phage 5 A (T7-like podovirus)); experiment: native gel or EMSA; native stoichiometry of wild-type 5 A SSB and escape mutants in the absence of DNA; each protein allowed to oligomerize for 1 hour; non-denaturing 4-20% Tris-glycine gel, 4 °C; part of the wild-type sample melted at 95 °C for the monomeric state
# [7] = target: Hna (helicase-nuclease abortive infection), wild type, Sinorhizobium meliloti; experiment: fluorescence anisotropy competition; conditions: in the presence of ATP; cold SSB added to the saturated Hna/GFP-SSB heterodimer; value read at the highest cold SSB concentration (about 2e3 nM); lower …; parent: est. 75; read off a plot
# [8] = saturating GFP-Hna homodimer, value read at the highest SSB concentration (about 2e4 nM), starting anisotropy about 100-110 mA, lower anisotropy = more …, parent: est. 22
substance,measurement,setting,value
5 A SSB escape mutant E38K (natural protein),stoichiometry N,[1],4
5 A SSB escape mutant E49A (natural protein),stoichiometry N,[2],2
5 A SSB escape mutant E201K (natural protein),stoichiometry N,[3],4
"Hna (helicase-nuclease abortive infection), wild type, Sinorhizobium meliloti (enzyme)","ssDNA cleavage rate of the Hna dimer mutant (T30A/D31A/P34A) compared to wild-type Hna, capillary electrophoresis",[4],> 10 fold
"Hna (helicase-nuclease abortive infection), wild type, Sinorhizobium meliloti T30A; D31A; P34A",response,"[5]; +ATP, GFP-Hna at fixed concentration, value is the plateau of the fitted curve at high cold Hna concentration, parent: est. 98",10 mA
"phage-encoded single-stranded DNA-binding protein of phage 5 A (5 A SSB), wild type (natural protein)",stoichiometry N,[6],2
"phage-encoded single-stranded DNA-binding protein of phage 5 A (5 A SSB), wild type E38K",response,[5]; [8],99 mA
"phage-encoded single-stranded DNA-binding protein of phage 5 A (5 A SSB), wild type E49A",response,[5]; [8],65 mA
"phage-encoded single-stranded DNA-binding protein of phage 5 A (5 A SSB), wild type E201K",response,[7],130 mA
same,response,[5]; [8],110 mA
